Reference: publication doi:10.1101/2022.04.08.487625

T1: Flag-mut-RNase HEC (catalytically dead RNase HI) (E. coli, UniProt P0A7Y4 1-155, D10R;E48R)
T1 sequence: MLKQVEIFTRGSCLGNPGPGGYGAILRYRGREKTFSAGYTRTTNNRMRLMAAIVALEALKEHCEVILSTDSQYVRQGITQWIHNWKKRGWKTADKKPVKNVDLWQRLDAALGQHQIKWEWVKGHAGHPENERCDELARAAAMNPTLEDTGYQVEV

B1: unlabeled RD hybrid (25 bp RNA/DNA) (DNA:RNA)
DNA: GATTCATACCTGTCGTGCCAGCTGC
RNA: GCAGCUGGCACGACAGGUAUGAAUC
B2: Dig-RD hybrid (25 bp RNA/DNA) (DNA:RNA)
DNA: GATTCATACCTGTCGTGCCAGCTGC
RNA: GCAGCUGGCACGACAGGUAUGAAUC

Columns and labels:
[1] = target: T1, Flag-mut-RNase HEC (catalytically dead …); test: competition
[2] = target: T1, Flag-mut-RNase HEC (catalytically dead …); test: EMSA

Row | Binder | binding result [1] | binding result [2]
1 | B1 | binds | 
2 | B2 |  | binds
